In patent US20240301040A1:

Tests used:
[1] = biological target: IL-1 receptor (IL-1R) (rat) (UniProt Q02955); experiment: co-immunoprecipitation, adult control rats, hippocampal synaptosomes, mean±SEM
[2] = biological target: IL-1 receptor (IL-1R) (rat) (UniProt Q02955); experiment: co-immunoprecipitation, adult ENV-expressing rats, hippocampal synaptosomes, mean±SEM

Sequence of UniProt Q02955 (Q02955 20-576): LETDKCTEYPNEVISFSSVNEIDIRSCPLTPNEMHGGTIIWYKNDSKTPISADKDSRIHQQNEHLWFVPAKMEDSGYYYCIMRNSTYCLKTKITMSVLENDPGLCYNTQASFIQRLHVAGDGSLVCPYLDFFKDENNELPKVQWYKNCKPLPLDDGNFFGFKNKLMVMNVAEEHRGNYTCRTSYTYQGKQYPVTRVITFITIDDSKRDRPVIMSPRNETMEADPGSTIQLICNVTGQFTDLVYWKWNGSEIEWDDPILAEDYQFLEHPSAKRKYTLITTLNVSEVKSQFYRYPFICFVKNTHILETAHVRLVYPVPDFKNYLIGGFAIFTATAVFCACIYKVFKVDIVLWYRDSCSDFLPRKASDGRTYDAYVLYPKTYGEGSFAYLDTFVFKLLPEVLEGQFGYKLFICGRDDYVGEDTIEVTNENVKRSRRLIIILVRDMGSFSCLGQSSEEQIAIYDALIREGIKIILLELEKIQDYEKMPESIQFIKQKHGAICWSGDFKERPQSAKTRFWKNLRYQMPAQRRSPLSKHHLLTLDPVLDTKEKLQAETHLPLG

| Substance | co-IP GluN2A/IL-1R (normalised to control animals) [1] | co-IP GluN2A/IL-1R (normalised to control animals) [2] | co-IP GluN2B/IL-1R (normalised to control animals) [1] | co-IP GluN2B/IL-1R (normalised to control animals) [2] |
| --- | --- | --- | --- | --- |
| GluN2A-NMDAR (GluN2A-containing NMDA receptor) (from UniProt Q00959 23-1464) | 1 | 1.04 | – | – |
| GluN2B-NMDAR (GluN2B-containing NMDA receptor) (from UniProt Q00960 27-1482) | – | – | 1 | 0.95 |
